How the values were obtained:
Assay in all cases: holdup assay
Parameters in all cases: key: below the threshold = too weak to quantify, mostly under pKd 3.1 to 4
Conditions in all cases: plain residues with an end cap or a label only (N-terminal biotin on a linker: ado-ado)
[1] = molecular target: T1, NHERF3_3, Q5T2W1
T1 sequence (Q5T2W1 238-333, limits assumed, looked up): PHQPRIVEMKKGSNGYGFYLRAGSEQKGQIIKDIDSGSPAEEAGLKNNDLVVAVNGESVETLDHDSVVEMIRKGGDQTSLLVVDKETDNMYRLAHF

[2] = molecular target: T2, DLG3_1, Q92796
T2 sequence (Q92796 125-227, limits assumed, looked up): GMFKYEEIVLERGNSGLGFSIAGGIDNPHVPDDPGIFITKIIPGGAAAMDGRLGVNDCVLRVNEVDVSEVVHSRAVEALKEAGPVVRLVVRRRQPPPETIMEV

[3] = molecular target: Inadl_5, Q8NI35
[4] = molecular target: T3, GRIP1_3, Q9Y3R0
T3 sequence (Q9Y3R0 247-346, limits assumed, looked up): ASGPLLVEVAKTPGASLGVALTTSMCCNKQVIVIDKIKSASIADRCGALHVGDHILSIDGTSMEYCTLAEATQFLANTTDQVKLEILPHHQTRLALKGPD

[5] = molecular target: T4, MPP7, Q5T2T1
T4 sequence (Q5T2T1 134-230, limits assumed, looked up): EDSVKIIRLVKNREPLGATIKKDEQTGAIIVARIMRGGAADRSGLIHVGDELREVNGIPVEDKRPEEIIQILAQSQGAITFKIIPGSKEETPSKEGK

[6] = molecular target: DLG2_3, Q15700
[7] = molecular target: LIMK2, P53671
[8] = molecular target: T5, DVL3, Q92997
T5 sequence (Q92997 244-331, limits assumed, looked up): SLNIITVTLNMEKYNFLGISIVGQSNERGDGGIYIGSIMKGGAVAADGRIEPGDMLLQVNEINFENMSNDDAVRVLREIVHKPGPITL

[9] = molecular target: T6, GRIP1_7, Q9Y3R0
T6 sequence (Q9Y3R0 999-1096, limits assumed, looked up): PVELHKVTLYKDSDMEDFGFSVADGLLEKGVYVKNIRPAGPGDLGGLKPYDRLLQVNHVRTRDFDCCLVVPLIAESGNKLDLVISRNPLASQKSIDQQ

[10] = molecular target: DLG1_3, Q12959
[11] = molecular target: T7, SYNJ2BP, P57105
T7 sequence (P57105 8-110, limits assumed, looked up): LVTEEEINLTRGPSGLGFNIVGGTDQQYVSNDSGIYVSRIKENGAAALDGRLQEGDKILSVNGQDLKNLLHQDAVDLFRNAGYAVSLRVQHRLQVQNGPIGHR

[12] = molecular target: T8, TX1BP3, O14907
T8 sequence (O14907 10-122, limits assumed, looked up): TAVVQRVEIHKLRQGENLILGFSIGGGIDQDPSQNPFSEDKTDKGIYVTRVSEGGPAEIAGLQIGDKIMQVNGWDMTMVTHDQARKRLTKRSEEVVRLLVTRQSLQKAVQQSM

[13] = molecular target: T9, RHPN1, Q8TCX5
T9 sequence (Q8TCX5 508-602, limits assumed, looked up): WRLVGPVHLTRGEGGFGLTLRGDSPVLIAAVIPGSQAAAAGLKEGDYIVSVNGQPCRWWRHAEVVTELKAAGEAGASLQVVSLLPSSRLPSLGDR

[14] = molecular target: MAGI2_4, Q86UL8
[15] = molecular target: HTRA1, Q92743
[16] = molecular target: MAST1, Q9Y2H9
[17] = molecular target: PDZRN4_1, Q6ZMN7
[18] = molecular target: T10, PCLO, Q9Y6V0
T10 sequence (Q9Y6V0 4491-4600, limits assumed, looked up): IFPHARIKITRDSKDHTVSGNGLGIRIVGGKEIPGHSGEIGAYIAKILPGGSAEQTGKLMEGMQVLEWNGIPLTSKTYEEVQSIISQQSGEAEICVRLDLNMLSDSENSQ

[19] = molecular target: T11, LRRC7, Q96NW7
T11 sequence (Q96NW7 1440-1537, limits assumed, looked up): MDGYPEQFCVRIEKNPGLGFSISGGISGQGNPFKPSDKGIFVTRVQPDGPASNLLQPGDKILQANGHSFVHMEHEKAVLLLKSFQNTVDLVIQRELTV

[20] = molecular target: T12, SNTA1, Q13424
T12 sequence (Q13424 82-180, limits assumed, looked up): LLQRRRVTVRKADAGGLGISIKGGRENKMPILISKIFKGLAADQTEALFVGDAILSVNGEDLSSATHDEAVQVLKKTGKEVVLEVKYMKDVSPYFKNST

[21] = molecular target: T13, NHERF3_4, Q5T2W1
T13 sequence (Q5T2W1 373-468, limits assumed, looked up): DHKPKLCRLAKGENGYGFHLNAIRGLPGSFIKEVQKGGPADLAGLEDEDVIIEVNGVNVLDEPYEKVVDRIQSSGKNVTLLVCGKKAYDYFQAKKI

[22] = molecular target: GRID2IP_2, A4D2P6
[23] = molecular target: GRIP2_7, Q9C0E4
Chain of GRIP2_7, Q9C0E4 (Q9C0E4 934-1023): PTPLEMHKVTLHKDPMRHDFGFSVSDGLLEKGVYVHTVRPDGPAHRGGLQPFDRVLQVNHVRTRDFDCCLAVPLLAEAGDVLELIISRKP

Chain of MAGI2_4, Q86UL8 (Q86UL8 772-865): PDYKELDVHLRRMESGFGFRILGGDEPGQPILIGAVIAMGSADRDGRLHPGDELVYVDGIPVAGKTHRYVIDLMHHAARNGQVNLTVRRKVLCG
Chain of LIMK2, P53671 (P53671 143-248): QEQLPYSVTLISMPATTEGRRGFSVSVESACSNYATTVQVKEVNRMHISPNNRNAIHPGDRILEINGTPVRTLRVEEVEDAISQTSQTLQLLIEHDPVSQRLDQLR
Chain of HTRA1, Q92743 (Q92743 360-477): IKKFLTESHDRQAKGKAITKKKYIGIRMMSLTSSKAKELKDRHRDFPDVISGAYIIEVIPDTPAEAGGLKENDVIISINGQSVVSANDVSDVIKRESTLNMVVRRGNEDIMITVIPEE
Chain of GRID2IP_2, A4D2P6 (A4D2P6 272-370): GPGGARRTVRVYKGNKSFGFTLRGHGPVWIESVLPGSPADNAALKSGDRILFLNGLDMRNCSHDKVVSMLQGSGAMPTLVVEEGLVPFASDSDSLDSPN
Chain of MAST1, Q9Y2H9 (Q9Y2H9 962-1065): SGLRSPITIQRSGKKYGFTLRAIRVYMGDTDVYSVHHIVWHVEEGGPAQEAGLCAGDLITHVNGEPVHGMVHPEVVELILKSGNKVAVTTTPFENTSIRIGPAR
Chain of Inadl_5, Q8NI35 (Q8NI35 673-780): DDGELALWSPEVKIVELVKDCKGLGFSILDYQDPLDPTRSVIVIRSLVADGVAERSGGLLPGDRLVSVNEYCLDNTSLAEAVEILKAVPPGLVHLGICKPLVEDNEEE
Chain of PDZRN4_1, Q6ZMN7 (Q6ZMN7 213-318): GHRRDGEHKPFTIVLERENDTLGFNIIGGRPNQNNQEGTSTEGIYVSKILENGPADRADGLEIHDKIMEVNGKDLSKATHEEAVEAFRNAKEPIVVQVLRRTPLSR
Chain of DLG1_3, Q12959 (Q12959 457-571): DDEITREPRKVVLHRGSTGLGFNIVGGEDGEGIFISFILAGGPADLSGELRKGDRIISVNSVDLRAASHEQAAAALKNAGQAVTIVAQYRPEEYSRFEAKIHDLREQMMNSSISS

B1: FAM167B, Q9BTA0 (peptide)
chain: NISARRFTLC
[1]
  pKd: below the threshold
[2]
  pKd: 3.98
[3]
  pKd: below the threshold
[4]
  pKd: below the threshold
[5]
  pKd: below the threshold
[6]
  pKd: 4.43
[7]
  pKd: below the threshold
[8]
  pKd: below the threshold
[9]
  pKd: below the threshold
[10]
  pKd: 4.06
[11]
  pKd: 3.75
[12]
  pKd: below the threshold
[13]
  pKd: below the threshold
[14]
  pKd: 3.63
[15]
  pKd: 4.47
[16]
  pKd: below the threshold
[17]
  pKd: below the threshold
[18]
  pKd: below the threshold
[19]
  pKd: below the threshold
[20]
  pKd: below the threshold
[21]
  pKd: below the threshold
[22]
  pKd: 4.21
[23]
  pKd: 3.81

B2: DUSP5, Q16690 (peptide)
chain: RSPVATATSC
[1]
  pKd: below the threshold
[2]
  pKd: below the threshold
[3]
  pKd: below the threshold
[4]
  pKd: below the threshold
[5]
  pKd: below the threshold
[6]
  pKd: 3.7
[7]
  pKd: below the threshold
[8]
  pKd: below the threshold
[9]
  pKd: below the threshold
[10]
  pKd: below the threshold
[11]
  pKd: below the threshold
[12]
  pKd: below the threshold
[13]
  pKd: below the threshold
[14]
  pKd: below the threshold
[15]
  pKd: below the threshold
[16]
  pKd: 3.81
[17]
  pKd: below the threshold
[18]
  pKd: below the threshold
[19]
  pKd: below the threshold
[20]
  pKd: below the threshold
[21]
  pKd: below the threshold
[22]
  pKd: 3.79
[23]
  pKd: below the threshold

B3: GAS2L2, Q8NHY3 (peptide)
chain: PLPPEEESWV
[1]
  pKd: below the threshold
[2]
  pKd: 4.01
[3]
  pKd: 4.29
[4]
  pKd: below the threshold
[5]
  pKd: 3.57
[6]
  pKd: 3.86
[7]
  pKd: below the threshold
[8]
  pKd: 4.01
[9]
  pKd: 4.46
[10]
  pKd: below the threshold
[11]
  pKd: 4.98
[12]
  pKd: 4.62
[13]
  pKd: 4.43
[14]
  pKd: 4.07
[15]
  pKd: 5.14
[16]
  pKd: below the threshold
[17]
  pKd: 4.13
[18]
  pKd: below the threshold
[19]
  pKd: 4.96
[20]
  pKd: 4.6
[21]
  pKd: below the threshold
[22]
  pKd: 4.06
[23]
  pKd: 4.09

B4: FAM71C, Q8NEG0 (peptide)
chain: STYCDYTIEI
[1]
  pKd: below the threshold
[2]
  pKd: below the threshold
[3]
  pKd: below the threshold
[4]
  pKd: below the threshold
[5]
  pKd: 4.6
[6]
  pKd: below the threshold
[7]
  pKd: below the threshold
[8]
  pKd: 4.01
[9]
  pKd: below the threshold
[10]
  pKd: below the threshold
[11]
  pKd: below the threshold
[12]
  pKd: below the threshold
[13]
  pKd: 3.47
[14]
  pKd: below the threshold
[15]
  pKd: 5.38
[16]
  pKd: 4.47
[17]
  pKd: below the threshold
[18]
  pKd: below the threshold
[19]
  pKd: below the threshold
[20]
  pKd: below the threshold
[21]
  pKd: below the threshold
[22]
  pKd: below the threshold
[23]
  pKd: below the threshold

Reference: publication PMC9482650, “Quantitative fragmentomics allow affinity mapping of interactomes” (Nature Communications, 2022)
